Laboratory results from patent US20240401239A1 (US Dept. of Health and Human Services, published 2024).

B1: RBD-1-2G-Fc (Fc fusion)
chain: EVQLVESGGGLVQPGGSLRLSCAASGFSSIVYMGWFRQAPGKGRELVAAIDASGSTTNYPDSVEGRFTISRDNAKRMVYLQMNSLRAEDTAVYYCAIAYFTSPEYVVSQGWGQGTQVTVSS
notes: also called bivalent format of RBD-1-2G
B2: single-domain antibody RBD-1-2G (VHH)
VHH: B1 chain
notes: also called RBD-1-2G Nb; RBD-1-2G nanobody
B3: RBD-1-2G-Tri (bispecific antibody)
chain: EVQLVESGGGLVQPGGSLRLSCAASGFSSIVYMGWFRQAPGKGRELVAAIDASGSTTNYPDSVEGRFTISRDNAKRMVYLQMNSLRAEDTAVYYCAIAYFTSPEYVVSQGWGQGTQVTVSSGGGGSGGGGSGGGGSEVQLVESGGGLVQPGGSLRLSCAASGFSSIVYMGWFRQAPGKGRELVAAIDASGSTTNYPDSVEGRFTISRDNAKRMVYLQMNSLRAEDTAVYYCAIAYFTSPEYVVSQGWGQGTQVTVSSGGGGSGGGGSGGGGSEVQLVESGGGLVQPGGSLRLSCAASGFSSIVYMGWFRQAPGKGRELVAAIDASGSTTNYPDSVEGRFTISRDNAKRMVYLQMNSLRAEDTAVYYCAIAYFTSPEYVVSQGWGQGTQVTVSSHHHHHH

Assays:
[1] = target: SARS-COV-2 S protein (Wuhan-Hu-1, WT) on MLV pseudotyped particles (SARS-COV-2, UniProt P0DTC2 14-1254); experiment: cell-based or functional assay
[2] = target: spike protein of authentic SARS-COV-2 virus (USA_WA1/2020) (SARS-COV-2, UniProt P0DTC2 14-1273); experiment: cell-based or functional assay
[3] = target: SARS-COV-2 spike protein receptor binding domain fused to an Fc tag (RBD-Fc, residues 319-541) (Sino … (SARS-COV-2, UniProt P0DTC2 319-541))
[4] = target: T1, mitochondrial elongation factor 1 (MIEF1) (human, UniProt Q9NQG6 1-463); experiment: flow cytometry validation after the membrane proteome array screen
T1 construct: whole, on cells
T1 sequence (Q9NQG6 whole entry): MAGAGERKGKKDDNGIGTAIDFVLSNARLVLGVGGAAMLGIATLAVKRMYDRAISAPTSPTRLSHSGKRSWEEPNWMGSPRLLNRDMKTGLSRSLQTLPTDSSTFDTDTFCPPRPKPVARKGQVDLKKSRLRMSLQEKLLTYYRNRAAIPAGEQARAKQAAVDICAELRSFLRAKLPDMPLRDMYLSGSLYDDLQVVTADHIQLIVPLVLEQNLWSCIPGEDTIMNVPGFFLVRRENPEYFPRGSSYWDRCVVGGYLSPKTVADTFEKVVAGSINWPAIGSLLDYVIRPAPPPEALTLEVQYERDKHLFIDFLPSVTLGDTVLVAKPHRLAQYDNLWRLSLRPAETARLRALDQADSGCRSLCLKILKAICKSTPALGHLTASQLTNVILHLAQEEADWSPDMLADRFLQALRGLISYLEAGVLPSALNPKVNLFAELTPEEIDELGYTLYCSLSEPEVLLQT

Binder | IC50, pseudotyped particle entry assay, wildtype particles [1] [nM] | IC50, SARS-COV-2 live virus (CPE) assay on Vero E6 cells [2] [nM] | IC50 [3] [nM] | IC50, SARS-COV-2 pseudotyped particle entry assay (HEK293-ACE2 cells) [1] [nM] | IC50, SARS-COV-2 live virus assay, lyophilized and reconstituted RBD-1-2G [2] [µM] | IC50, SARS-COV-2 live virus assay, untreated RBD-1-2G [2] [µM] | binding result [4]
B1 | 10.2 | 255 | – | – | – | – | –
B2 | 512 | 1210 | 28.3 | 490 | 5.9 | 14.8 | no binding
B3 | 4.5 | 182 | – | – | – | – | –
